Where no end group is shown, it is not given here. The star is where a group is joined. Succinimide(1-Et,3-yl) = CCN1C(=O)CC(*)C1=O

The chains are these.
T1: human corticotrophin releasing hormone receptor type 2 (CRHR2) (human, UniProt Q13324 1-411)
T1 sequence (looked up): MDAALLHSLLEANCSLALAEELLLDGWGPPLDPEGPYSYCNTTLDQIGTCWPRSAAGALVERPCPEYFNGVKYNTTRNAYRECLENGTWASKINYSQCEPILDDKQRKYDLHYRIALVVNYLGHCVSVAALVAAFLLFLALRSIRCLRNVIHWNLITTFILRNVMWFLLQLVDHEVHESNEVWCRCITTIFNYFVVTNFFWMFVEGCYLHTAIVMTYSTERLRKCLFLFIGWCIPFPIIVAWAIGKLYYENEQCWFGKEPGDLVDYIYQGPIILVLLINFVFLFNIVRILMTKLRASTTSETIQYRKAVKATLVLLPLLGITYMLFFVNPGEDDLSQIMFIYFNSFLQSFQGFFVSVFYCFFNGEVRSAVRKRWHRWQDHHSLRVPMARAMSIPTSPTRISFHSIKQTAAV

B1: Cys-variant of stresscopin peptide with N-Ethylsuccinimide (NES) reactive group SEQ ID NO: 49 (peptide)
peptide: TKFTLSLDVPTNIMNLLFNIAKAKC(Succinimide(1-Et,3-yl))LRAQAAANAHLMAQI-NH2
modifications: N-terminus assumed
SMILES: CC[C@H](C)[C@H](NC(=O)[C@H](CCC(N)=O)NC(=O)[C@H](C)NC(=O)[C@H](CCSC)NC(=O)[C@H](CC(C)C)NC(=O)[C@H](Cc1c[nH]cn1)NC(=O)[C@H](C)NC(=O)[C@H](CC(N)=O)NC(=O)[C@H](C)NC(=O)[C@H](C)NC(=O)[C@H](C)NC(=O)[C@H](CCC(N)=O)NC(=O)[C@H](C)NC(=O)[C@H](CCCNC(=N)N)NC(=O)[C@H](CC(C)C)NC(=O)[C@H](CSC1CC(=O)N(CC)C1=O)NC(=O)[C@H](CCCCN)NC(=O)[C@H](C)NC(=O)[C@H](CCCCN)NC(=O)[C@H](C)NC(=O)[C@@H](NC(=O)[C@H](CC(N)=O)NC(=O)[C@H](Cc1ccccc1)NC(=O)[C@H](CC(C)C)NC(=O)[C@H](CC(C)C)NC(=O)[C@H](CC(N)=O)NC(=O)[C@H](CCSC)NC(=O)[C@@H](NC(=O)[C@H](CC(N)=O)NC(=O)[C@@H](NC(=O)[C@@H]1CCCN1C(=O)[C@@H](NC(=O)[C@H](CC(=O)O)NC(=O)[C@H](CC(C)C)NC(=O)[C@H](CO)NC(=O)[C@H](CC(C)C)NC(=O)[C@@H](NC(=O)[C@H](Cc1ccccc1)NC(=O)[C@H](CCCCN)NC(=O)[C@@H](N)[C@@H](C)O)[C@@H](C)O)C(C)C)[C@@H](C)O)[C@@H](C)CC)[C@@H](C)CC)C(N)=O
B2: Cys-variant of stresscopin peptide with N-Ethylsuccinimide (NES) reactive group SEQ ID NO: 46 (peptide)
peptide: TKFTLSLDVPTNIMNLLFNIAKAKNLRAQAC(Succinimide(1-Et,3-yl))ANAHLMAQI-NH2
modifications: N-terminus assumed
SMILES: CC[C@H](C)[C@H](NC(=O)[C@H](CCC(N)=O)NC(=O)[C@H](C)NC(=O)[C@H](CCSC)NC(=O)[C@H](CC(C)C)NC(=O)[C@H](Cc1c[nH]cn1)NC(=O)[C@H](C)NC(=O)[C@H](CC(N)=O)NC(=O)[C@H](C)NC(=O)[C@H](CSC1CC(=O)N(CC)C1=O)NC(=O)[C@H](C)NC(=O)[C@H](CCC(N)=O)NC(=O)[C@H](C)NC(=O)[C@H](CCCNC(=N)N)NC(=O)[C@H](CC(C)C)NC(=O)[C@H](CC(N)=O)NC(=O)[C@H](CCCCN)NC(=O)[C@H](C)NC(=O)[C@H](CCCCN)NC(=O)[C@H](C)NC(=O)[C@@H](NC(=O)[C@H](CC(N)=O)NC(=O)[C@H](Cc1ccccc1)NC(=O)[C@H](CC(C)C)NC(=O)[C@H](CC(C)C)NC(=O)[C@H](CC(N)=O)NC(=O)[C@H](CCSC)NC(=O)[C@@H](NC(=O)[C@H](CC(N)=O)NC(=O)[C@@H](NC(=O)[C@@H]1CCCN1C(=O)[C@@H](NC(=O)[C@H](CC(=O)O)NC(=O)[C@H](CC(C)C)NC(=O)[C@H](CO)NC(=O)[C@H](CC(C)C)NC(=O)[C@@H](NC(=O)[C@H](Cc1ccccc1)NC(=O)[C@H](CCCCN)NC(=O)[C@@H](N)[C@@H](C)O)[C@@H](C)O)C(C)C)[C@@H](C)O)[C@@H](C)CC)[C@@H](C)CC)C(N)=O
B3: Cys-variant of stresscopin peptide with N-Ethylsuccinimide (NES) reactive group SEQ ID NO: 48 (peptide)
peptide: TKFTLSLDVPTNIMNLLFNIAKAKNC(Succinimide(1-Et,3-yl))RAQAAANAHLMAQI-NH2
modifications: N-terminus assumed
SMILES: CC[C@H](C)[C@H](NC(=O)[C@H](CCC(N)=O)NC(=O)[C@H](C)NC(=O)[C@H](CCSC)NC(=O)[C@H](CC(C)C)NC(=O)[C@H](Cc1c[nH]cn1)NC(=O)[C@H](C)NC(=O)[C@H](CC(N)=O)NC(=O)[C@H](C)NC(=O)[C@H](C)NC(=O)[C@H](C)NC(=O)[C@H](CCC(N)=O)NC(=O)[C@H](C)NC(=O)[C@H](CCCNC(=N)N)NC(=O)[C@H](CSC1CC(=O)N(CC)C1=O)NC(=O)[C@H](CC(N)=O)NC(=O)[C@H](CCCCN)NC(=O)[C@H](C)NC(=O)[C@H](CCCCN)NC(=O)[C@H](C)NC(=O)[C@@H](NC(=O)[C@H](CC(N)=O)NC(=O)[C@H](Cc1ccccc1)NC(=O)[C@H](CC(C)C)NC(=O)[C@H](CC(C)C)NC(=O)[C@H](CC(N)=O)NC(=O)[C@H](CCSC)NC(=O)[C@@H](NC(=O)[C@H](CC(N)=O)NC(=O)[C@@H](NC(=O)[C@@H]1CCCN1C(=O)[C@@H](NC(=O)[C@H](CC(=O)O)NC(=O)[C@H](CC(C)C)NC(=O)[C@H](CO)NC(=O)[C@H](CC(C)C)NC(=O)[C@@H](NC(=O)[C@H](Cc1ccccc1)NC(=O)[C@H](CCCCN)NC(=O)[C@@H](N)[C@@H](C)O)[C@@H](C)O)C(C)C)[C@@H](C)O)[C@@H](C)CC)[C@@H](C)CC)C(N)=O
B4: Cys-variant of stresscopin peptide with N-Ethylsuccinimide (NES) reactive group SEQ ID NO: 51 (peptide)
peptide: TKFTLSLDVPTNIMNLLFNC(Succinimide(1-Et,3-yl))AKAKNLRAQAAANAHLMAQI-NH2
modifications: N-terminus assumed
SMILES: CC[C@H](C)[C@H](NC(=O)[C@H](CCC(N)=O)NC(=O)[C@H](C)NC(=O)[C@H](CCSC)NC(=O)[C@H](CC(C)C)NC(=O)[C@H](Cc1c[nH]cn1)NC(=O)[C@H](C)NC(=O)[C@H](CC(N)=O)NC(=O)[C@H](C)NC(=O)[C@H](C)NC(=O)[C@H](C)NC(=O)[C@H](CCC(N)=O)NC(=O)[C@H](C)NC(=O)[C@H](CCCNC(=N)N)NC(=O)[C@H](CC(C)C)NC(=O)[C@H](CC(N)=O)NC(=O)[C@H](CCCCN)NC(=O)[C@H](C)NC(=O)[C@H](CCCCN)NC(=O)[C@H](C)NC(=O)[C@H](CSC1CC(=O)N(CC)C1=O)NC(=O)[C@H](CC(N)=O)NC(=O)[C@H](Cc1ccccc1)NC(=O)[C@H](CC(C)C)NC(=O)[C@H](CC(C)C)NC(=O)[C@H](CC(N)=O)NC(=O)[C@H](CCSC)NC(=O)[C@@H](NC(=O)[C@H](CC(N)=O)NC(=O)[C@@H](NC(=O)[C@@H]1CCCN1C(=O)[C@@H](NC(=O)[C@H](CC(=O)O)NC(=O)[C@H](CC(C)C)NC(=O)[C@H](CO)NC(=O)[C@H](CC(C)C)NC(=O)[C@@H](NC(=O)[C@H](Cc1ccccc1)NC(=O)[C@H](CCCCN)NC(=O)[C@@H](N)[C@@H](C)O)[C@@H](C)O)C(C)C)[C@@H](C)O)[C@@H](C)CC)C(N)=O
B5: Cys-variant of stresscopin peptide with N-Ethylsuccinimide (NES) reactive group SEQ ID NO: 50 (peptide)
peptide: TKFTLSLDVPTNIMNLLFNIAKAC(Succinimide(1-Et,3-yl))NLRAQAAANAHLMAQI-NH2
modifications: N-terminus assumed
SMILES: CC[C@H](C)[C@H](NC(=O)[C@H](CCC(N)=O)NC(=O)[C@H](C)NC(=O)[C@H](CCSC)NC(=O)[C@H](CC(C)C)NC(=O)[C@H](Cc1c[nH]cn1)NC(=O)[C@H](C)NC(=O)[C@H](CC(N)=O)NC(=O)[C@H](C)NC(=O)[C@H](C)NC(=O)[C@H](C)NC(=O)[C@H](CCC(N)=O)NC(=O)[C@H](C)NC(=O)[C@H](CCCNC(=N)N)NC(=O)[C@H](CC(C)C)NC(=O)[C@H](CC(N)=O)NC(=O)[C@H](CSC1CC(=O)N(CC)C1=O)NC(=O)[C@H](C)NC(=O)[C@H](CCCCN)NC(=O)[C@H](C)NC(=O)[C@@H](NC(=O)[C@H](CC(N)=O)NC(=O)[C@H](Cc1ccccc1)NC(=O)[C@H](CC(C)C)NC(=O)[C@H](CC(C)C)NC(=O)[C@H](CC(N)=O)NC(=O)[C@H](CCSC)NC(=O)[C@@H](NC(=O)[C@H](CC(N)=O)NC(=O)[C@@H](NC(=O)[C@@H]1CCCN1C(=O)[C@@H](NC(=O)[C@H](CC(=O)O)NC(=O)[C@H](CC(C)C)NC(=O)[C@H](CO)NC(=O)[C@H](CC(C)C)NC(=O)[C@@H](NC(=O)[C@H](Cc1ccccc1)NC(=O)[C@H](CCCCN)NC(=O)[C@@H](N)[C@@H](C)O)[C@@H](C)O)C(C)C)[C@@H](C)O)[C@@H](C)CC)[C@@H](C)CC)C(N)=O
B6: Cys-variant of stresscopin peptide with N-Ethylsuccinimide (NES) reactive group SEQ ID NO: 47 (peptide)
peptide: TKFTLSLDVPTNIMNLLFNIAKAKNLRC(Succinimide(1-Et,3-yl))QAAANAHLMAQI-NH2
modifications: N-terminus assumed
SMILES: CC[C@H](C)[C@H](NC(=O)[C@H](CCC(N)=O)NC(=O)[C@H](C)NC(=O)[C@H](CCSC)NC(=O)[C@H](CC(C)C)NC(=O)[C@H](Cc1c[nH]cn1)NC(=O)[C@H](C)NC(=O)[C@H](CC(N)=O)NC(=O)[C@H](C)NC(=O)[C@H](C)NC(=O)[C@H](C)NC(=O)[C@H](CCC(N)=O)NC(=O)[C@H](CSC1CC(=O)N(CC)C1=O)NC(=O)[C@H](CCCNC(=N)N)NC(=O)[C@H](CC(C)C)NC(=O)[C@H](CC(N)=O)NC(=O)[C@H](CCCCN)NC(=O)[C@H](C)NC(=O)[C@H](CCCCN)NC(=O)[C@H](C)NC(=O)[C@@H](NC(=O)[C@H](CC(N)=O)NC(=O)[C@H](Cc1ccccc1)NC(=O)[C@H](CC(C)C)NC(=O)[C@H](CC(C)C)NC(=O)[C@H](CC(N)=O)NC(=O)[C@H](CCSC)NC(=O)[C@@H](NC(=O)[C@H](CC(N)=O)NC(=O)[C@@H](NC(=O)[C@@H]1CCCN1C(=O)[C@@H](NC(=O)[C@H](CC(=O)O)NC(=O)[C@H](CC(C)C)NC(=O)[C@H](CO)NC(=O)[C@H](CC(C)C)NC(=O)[C@@H](NC(=O)[C@H](Cc1ccccc1)NC(=O)[C@H](CCCCN)NC(=O)[C@@H](N)[C@@H](C)O)[C@@H](C)O)C(C)C)[C@@H](C)O)[C@@H](C)CC)[C@@H](C)CC)C(N)=O
B7: Pegylated Cys-variant stresscopin-like peptide, NES-PEG MW40000, SEQ ID NO: 100 (peptide)
peptide: TKFTLSLDVPTNIMNLLFNIAKAKNLRCQAAANAHLMAQI
modifications: NES-PEG MW40000 on Cys 28; C-terminal amide (-NH2)
B8: Pegylated Cys-variant stresscopin-like peptide, NES-PEG MW80000 & BRANCHED, SEQ ID NO: 101 (peptide)
peptide: B7 peptide
modifications: NES-PEG MW80000 & BRANCHED on Cys 28; C-terminal amide (-NH2)

This experiment addresses T1, human corticotrophin releasing hormone …. Briefly: cell-based or functional assay.
As for B1, the “Log DR” value stood at 0.11 log10 and the pA50 is 9.36 -log10(M).
The corresponding values for B2 are 0.04 log10 and 9.43 -log10(M).
The corresponding values for B3 are 0.03 log10 and 9.44 -log10(M).
Regarding B4, the “Log DR” value came to 0.68 log10 and the pA50 is 8.79 -log10(M).
As to B5, the “Log DR” value was -0.01 log10 and the pA50 is 9.48 -log10(M).
The corresponding values for B6 are -0.03 log10 and 9.5 -log10(M).
The corresponding values for B7 are 1.1 log10 and 8.64 -log10(M).
As to B8, the “Log DR” value is 1.9 log10 and the pA50 is 7.84 -log10(M).

The record behind these values is US20110105397A1, “METHOD FOR TREATING HEART FAILURE WITH STRESSCOPIN-LIKE PEPTIDES” (priority 2009, published 2011).
